Target: denatured enolase

B1: N-terminal hexahistidine tagged SAD (protein)
chain: MRGSHHHHHHEPFLRRRLAFLSFFWDKIWPAGGEPDHGTPGSLDPNTDPVPTLPAEPCSPFPQLFLALYDFTARCGGELSVRRGDRLCALEEGGGYIFARRLSGQPSAGLVPITHVAKASPETLSDQPWYFSGVSRTQAQQLLLSPPNEPGAFLIRPSESSLGGYSLSVRAQAKVCHYRVSMAADGSLYLQKGRLFPGLEELLTYYKANWKLIQNPLLQPCMPQKAPRQDVWERPHSEFALGRKLGEGYFGEVWEGLWLGSLPVAIKVIKSANMKLTDLAKEIQTLKGLRHERLIRLHAVCSGGEPVYIVTELMRKGNLQAFLGTPEGRALRLPPLLGFACQVAEGMSYLEEQRVVHRDLAARNVLVDDGLACKVADFGLARLLKDDIYSPSSSSKIPVKWTAPEAANYRVFSQKSDVWSFGVLLHEVFTYGQCPYEGMTNHETLQQIMRGYRLPRPAACPAEVYVLMLECWRSSPEERPSFATLREKLHAIHRCHP
- phosphorylation of substrate, in vitro kinase assay with 32P-ATP, autoradiography: SAD was able to phosphorylate both denatured enolase and poly-Glu-Tyr in vitro

From patent US20040087783
